Values of other authors in PMC9858354.

Target: CCRL2 (Homo sapiens) (UniProt O00421)
Assay: radioligand

Chain of chemerin (Q99969 21-157): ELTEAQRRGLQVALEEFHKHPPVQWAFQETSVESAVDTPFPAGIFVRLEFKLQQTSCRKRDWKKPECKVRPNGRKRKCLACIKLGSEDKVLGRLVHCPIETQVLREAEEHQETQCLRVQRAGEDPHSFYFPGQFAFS
Chain of CCRL2 (Homo sapiens) (O00421 whole entry): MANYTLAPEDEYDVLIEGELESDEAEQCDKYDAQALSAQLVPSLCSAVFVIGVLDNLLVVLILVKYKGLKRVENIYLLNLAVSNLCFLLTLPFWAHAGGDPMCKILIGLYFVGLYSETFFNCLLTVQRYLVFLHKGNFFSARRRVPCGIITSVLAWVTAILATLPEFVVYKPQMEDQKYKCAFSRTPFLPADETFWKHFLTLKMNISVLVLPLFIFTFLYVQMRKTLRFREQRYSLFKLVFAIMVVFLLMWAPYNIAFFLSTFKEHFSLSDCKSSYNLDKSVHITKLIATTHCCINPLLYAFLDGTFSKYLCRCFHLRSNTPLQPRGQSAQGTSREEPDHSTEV

chemerin (from UniProt Q99969)
Kd: 2.35 nM
